Kd data for one molecule are collected here from article PMC7556843 (2020).

As usually defined, the Kd is the concentration at which binding is half-saturated. A high value points to a looser complex.

The target of this assay is Ub2 (Homo sapiens). Kind of assay: ITC; values taken from Vincendeau et al.

B1: Human NEMO258-350 C347S (NEMO UBAN domain) (domain or fragment)
chain: MQLEDLKQQLQQAEEALVAKQEVIDKLKEEAEQHKIVMETVPVLKAQADIYKADFQAERQAREKLAEKKELLQEQLEQLQREYSKLKASSQES
modifications: linear (M1-linked) diubiquitin, two 76-residue units fused head to tail; the N-terminal His-tag present in the SAXS sample is left out
B1: the Kd was 1810 nM.
